{"source": "patent US11753479B2", "about": "“Nucleic acids encoding anti-OX40L antibodies” (Kymab Limited, priority 2014, dated 2023)", "molecules": {"B1": {"name": "2D10 (hybridoma): murine/human chimeric anti-OX40L antibody 2D10 purified from hybridoma supernatant (antibody, V domains shown)", "VH": "EVQLVESGGGLVQPGGSLRLSCAASGFTFSNYAMNWVRQAPGKGLEWVSTISGSGGATRYADSVKGRFTISRDNSRNTVYLQMNSLRVEDTAVFYCTKDRLIMATVRGPYYYGMDVWGQGTTVTVSS", "VL": "DIQMTQSPSSLSASVGDRVTITCRASQSISSYLNWYQQKPGKAPNLLIYAASSLQSGVPSRFSGSGSETDFTLTISSLQPEDFATYYCQQSHSVSFTFGPGTKVDIK"}, "B2": {"name": "9H04 (hybridoma): murine/human chimeric anti-OX40L antibody purified from hybridoma supernatant (protein, listed as Homo Sapiens)", "chain": "QVQLVESGGGLVKPGGSLRLSCAASRFTLSDYYMTWIRQAPGKGLEWVSYISSSGNTIYYADSVKGRFTISRDNAKNSLYLQMNSLRAEDTAVYYCARDLSGSYWDYYYGMDVWGQGTTVTVSS", "modifications": "VH only; VL and constant regions missing", "notes": "murine/human chimeric anti-OX40L antibody purified from hybridoma supernatant"}, "B3": {"name": "10A07 (hybridoma): murine/human chimeric anti-OX40L antibody 10A07 purified from hybridoma supernatant (antibody, V domains shown)", "VH": "EVQLVESGGVLVQPGGSLRLSCAASGFTFSSYIMTWVRQAPGKGLEWVSGISGSGGGTYYADSMKGRFTISRDNSKNTLYLQMNSLRVEDTAVYYCAKDRLGPITLVRGGYYYGMDVWGQGTTVTVSS", "VL": "DIQMTQSPSSLSASVGDRVTITCRASQSISDYLNWYQQKPGKAPKFLIYAASSLQSGVPSRFSGSGSGTDFTLTVSSLQPEDFATYYCQQSYSTPRTFGQGTRVEIK"}}, "biological_target": "T1, hOX40L expressed on CHO-S cells (Homo sapiens, UniProt P23510)", "T1 construct": "expressed in transfected cells", "T1 sequence (P23510 1-183)": "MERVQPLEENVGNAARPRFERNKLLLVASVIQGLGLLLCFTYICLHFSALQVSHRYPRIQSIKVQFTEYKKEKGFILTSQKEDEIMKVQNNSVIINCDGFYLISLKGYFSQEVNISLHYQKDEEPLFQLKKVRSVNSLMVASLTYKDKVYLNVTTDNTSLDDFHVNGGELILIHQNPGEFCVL", "experiment": "Binding to CHO-S expressed hOX40L (FACS)", "conditions": "binding to CHO-S expressed hOX40L by FACS", "experimental": "To determine whether wells selected using the primary screen selection criteria had the required characteristics set by the inventors, a number of assays were performed. Hybridoma clones selected as hits from primary screening were cultured for 3 days and the supernatants collected from hybridoma cells were tested to assess whether the secreted antibodies that bind to CHO-S expressed hOX40L, in some case bind to untransfected CHO-S cells and whether they neutralise recombinant OX40R Fc binding to CHO-S hOX40L and ability to neutralise OX40R binding to recombinant biotinylated hOX40L.\nCHO-S cells expressing hOX40L or untransfected CHO-S cells, diluted in FACS buffer (PBS+1% w/v BSA+0.1% w/v NaN3) were distributed to a 96 well V-bottom plate (Greiner) at a density of 1×10^5 cells per well. Cells were washed with 150 μL of PBS and centrifuged at 300×g for 3 min. Supernatant was aspirated and 150 μL of PBS added. This wash step was repeated.\n25 μL of hybridoma supernatant or purified antibody from hybridoma supernatant diluted in FACS buffer was added to the washed cells and incubated for 10-15 minutes. Reference Antibody or mouse IgG1 control antibody (Sigma) were diluted in FACS buffer to 20 μg/mL and 25 μL added to cells. 25 μL of human OX40R Fc (in-house) diluted to 1000 ng/mL in FACS buffer were then added to wells. Cells were incubated at 4° C. for 30 minutes.\nCells were washed twice with 150 μL of PBS centrifuging after each wash step and aspirating supernatant (centrifuged at 300×g for 3 minutes). […]\nTo fix cells 100 μL 2% v/v paraformaldehyde was added and cells incubated for 30 minutes at 4° C., cells were pelleted by centrifugation 300×g and the plates and resuspended in 50 μL of FACS buffer. PE and APC signal intensity (geomean) was measured by flow cytometry using a BD FACS Array instrument.\n% of control binding was calculated using geomean fluorescence as described in equation 1 where total binding was defined as reference antibody at 10 μg/mL and non-specific binding as mouse IgG1 antibody at 10 μg/mL. % receptor binding was calculated using Equation 3. […]"}
{"molecule": "B1", "values": [{"measurement": "FACS Binding", "result": "YES"}]}
{"molecule": "B2", "values": [{"measurement": "FACS Binding", "result": "YES"}]}
{"molecule": "B3", "values": [{"measurement": "FACS Binding", "result": "YES"}]}
